What is called Kd is the constant that tells how readily two partners part at equilibrium. By koff is commonly meant the first-order rate constant of dissociation. A higher koff goes with fast dissociation. The term kon denotes the rate constant with which the complex forms. The low end stands for slower complex formation, the high end for faster complex formation.

The results in this text go back to publication doi:10.1101/2024.05.05.592584 (bioRxiv, 2024).

Experiment in all cases: BLI
Conditions in all cases: both partners purified

The target of experiment [1] is SARS-CoV-2 Wuhan-Hu-1 NTD (SARS-CoV-2 Wuhan-Hu-1, UniProt P0DTC2).
Experiment [2] concerns the target SARS-CoV-2 Wuhan-Hu-1 RBD (SARS-CoV-2 Wuhan-Hu-1, UniProt P0DTC2).
For a further experiment, the target named is T1, SARS-CoV-2 HV.1 NTD (SARS-CoV-2 Omicron HV.1, strain).
T1 chain: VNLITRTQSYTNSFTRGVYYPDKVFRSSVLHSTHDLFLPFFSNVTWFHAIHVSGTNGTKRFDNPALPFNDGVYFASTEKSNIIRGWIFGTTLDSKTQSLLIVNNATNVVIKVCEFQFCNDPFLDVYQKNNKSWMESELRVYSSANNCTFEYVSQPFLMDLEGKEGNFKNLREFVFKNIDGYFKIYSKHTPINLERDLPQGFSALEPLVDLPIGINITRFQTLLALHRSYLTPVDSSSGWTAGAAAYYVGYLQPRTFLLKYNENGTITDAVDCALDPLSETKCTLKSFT

For a further experiment, the target named is SARS-CoV-2 RBD protein (SARS-CoV-2 Wuhan-Hu-1, UniProt P0DTC2).
In experiment [3] the target is SARS-CoV-2 RBD-SD1 protein (SARS-CoV-2, Wuhan-Hu-1 lineage (GenBank …, UniProt A0A679G9E9)).
Experiment [4] addresses SARS-CoV-2 Wuhan-Hu-1 NTD protein (SARS-CoV-2 Wuhan-Hu-1, UniProt P0DTC2).

B1: C1533 IgG (antibody, V domains shown)
VH: QVQLVQSGAEVKKPGSSVKVSCKTSGVIFSRNAFSWVRQAPGQGLEWMGRIIPFLDVTNSAQEFQGRVTLNADKSTSTVYMELSSLRSEDTAIYYCARHNGDPYDFWSGYNTWAGGLDVWGQGTTVTVSS
VL: QSVLTQPPSASGTPGQRVTISCSGSGSNIGSNAVNWYQQLPGTAPKLLIYNQNQRPSGVPDRFSGSKSGTSASLAIGGLQSEDEADYYCATWDDNLSGLVFGGGTKLTVL
notes: copies: 2 + 2
Consider B1, for which, in experiment [1], the affinity, expressed as Kd, was 17.1 nM; the koff came out at 0.000547 s⁻¹; the kon worked out at 32000 M⁻¹ s⁻¹.

B2: C952 IgG (antibody, V domains shown)
VH: EVQLVQSGAEVKKPGESLTISCKDSGNSFTIYWIGWVRQMPGKGLEWMGMIYPGDSGTRYSPSFEGQVTISADESINTAYLQWRSLKASDTAMYYCVRGIAVDWYFDLWGRGTLVTVSS
VL: QSVLTQPPSVSGAPGQRVTISCTGSSSNIGAGFDVHWYQQLPGTAPKLLIYGNNNRPSGVPDRFSGSKSATSASLAITGLQAEDEADYYCQSSDSSLSGLYVFGTGTNVIVL
notes: copies: 2 + 2
Consider B2, for which, in experiment [2], the Kd was 6.35 nM, the koff was determined as 0.00176 s⁻¹ and the kon is 278000 M⁻¹ s⁻¹.

B3: C1520 IgG (antibody, V domains shown)
VH: EVQLVESGGGLVQPGGSLRLACVASGFTFSIYEMNWVRQAPGKGLEWVSYITTSGHARYNADSVKGRFTISRDNSKNSFYLQMNSLRAEDTAIYYCARPQYHYYDTSTYHSYGFDIWGQGTMVTVSS
VL: QLVLTQSPSASASLGASVNLTCTLSSGHNSYAIAWHQQQPEKGPRYLMSLNSDGSHTKGDGIPDRFSGSSSGAERFLTISSLQSEDEADYYCQTWDTGIRVFGGGTRLTVL
notes: copies: 2 + 2
In experiment [1], B3 showed a Kd of 24.8 nM, a koff of 0.000393 s⁻¹ and a kon of 15900 M⁻¹ s⁻¹.

B4: C1596 IgG (antibody, V domains shown)
VH: QVQLVQSGAEVKKPGSSVKVSCKASGGTFINYAVTWVRQAPGQGLEWMGGIIPILGIPNYAQKFQGRVTITADKSTSTAYMELSSLRSEDTAVYYCARVPQAGAAQGHYYYYYGMDVWGQGTTVTVSS
VL: not shown
notes: copies: 2 + 2
As to B4, the Kd worked out at 553 nM with SARS-CoV-2 HV.1 NTD and 125 nM in experiment [1].

B5: C1596 Fab (Fab, V domains shown)
VH: QVQLVQSGAEVKKPGSSVKVSCKASGGTFINYAVTWVRQAPGQGLEWMGGIIPILGIPNYAQKFQGRVTITADKSTSTAYMELSSLRSEDTAVYYCARVPQAGAAQGHYYYYYGMDVWGQGTTVTVSS
VL: not shown
With B5, the binding result (with SARS-CoV-2 RBD protein; in experiment [3]) was “no binding” throughout. The same molecule registered a Kd in experiment [4] of 160 nM.
